The values below are quoted from earlier work in article PMC5481609.

This series has as its target IL-23 p19 (Homo sapiens) (UniProt Q9NPF7).

IL-23 p19 (Homo sapiens), sequence (Q9NPF7 20-189, chain 1 of 2): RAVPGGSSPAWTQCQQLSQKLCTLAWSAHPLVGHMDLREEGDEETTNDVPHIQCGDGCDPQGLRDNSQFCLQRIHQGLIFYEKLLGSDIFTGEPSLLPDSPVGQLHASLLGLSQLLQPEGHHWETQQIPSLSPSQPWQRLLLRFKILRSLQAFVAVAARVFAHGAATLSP
IL-23 p19 (Homo sapiens), sequence (P29460 23-328, chain 2 of 2, further chain): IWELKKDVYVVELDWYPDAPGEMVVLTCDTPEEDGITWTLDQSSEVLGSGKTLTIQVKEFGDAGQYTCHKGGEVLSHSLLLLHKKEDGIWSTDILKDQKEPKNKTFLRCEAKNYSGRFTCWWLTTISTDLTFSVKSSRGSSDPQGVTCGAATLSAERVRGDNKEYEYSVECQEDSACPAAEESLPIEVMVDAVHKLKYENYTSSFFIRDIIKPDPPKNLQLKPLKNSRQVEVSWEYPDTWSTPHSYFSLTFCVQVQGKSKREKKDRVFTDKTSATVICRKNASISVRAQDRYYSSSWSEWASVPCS

As to brazikumab, the Kd was 0.138 nM.

The term Kd denotes a measure of binding affinity in units of concentration.
